Results: article PMC7664933, “Enzyme Properties of a Laccase Obtained from the Transcriptome of the Marine-Derived Fungus Stemphylium lucomagnoense” (International Journal of Molecular Sciences, 2020)

Columns and labels:
Assay in all cases: spectrophotometric oxidation assay, Michaelis-Menten fit
Assay type in all cases: biochemical, Stemphylium lucomagnoense
[1] = substrate: CCn1c(=NN=c2sc3cc(S(=O)(=O)O)ccc3n2CC)sc2cc(S(=O)(=O)O)ccc21; conditions: 50 mM sodium acetate, pH 4.0, 30 °C, free enzyme, pH 4.0
Text: (§1) spectrophotometric oxidation assay, Michaelis-Menten fit on SlLac2

[2] = substrate: COc1cc(C=NN=Cc2cc(OC)c(O)c(OC)c2)cc(OC)c1O; conditions: 50 mM sodium acetate, pH 6.0, 30 °C, free enzyme, pH 6.0
Text: as §1

[3] = substrate: COc1cccc(OC)c1O; conditions: 50 mM sodium acetate, pH 5.0, 30 °C, free enzyme, pH 5.0
Text: as §1

B1: SlLac2 (Stemphylium lucomagnoense) (protein)
chain: AVLPVELPNPAPFTPKRDGLEERQSPASCINVGHTPKTRHCWAQGFTSSTDMYTSWPNTGVIRSYNLRLENTTCNPDGAGSRVCLLINGRFLGPTIVANWGDTIRVTVRNNLQSNGTSIHWHGFRMLNKNIQDGVNGITECALAPGDFKTYQFQATEYGTTWYHSHFSHQYGDGVVGTVIVNGPATANYDEDLGVMPITDWYYNTAFQAASIAFQNGQAGLGPPVGDNILINGTAKNAAGGGAWNRVTIQAGKRYRLRLVNTAVDTNMLVNLDGHPFQVIATDFVPINPYNTTHLQIGIGQRYDVIINANQTAGNYWFRATADGLCQSRNAREGRAIFTYQGQPVADPTSTAPTVPFTACLDPVTTPKIVKNVPSSTFAAQAKNLPVAFGPVAANGNTVLWTINGTSMIIDPGKPTIKYVAENNNSFPQSYNVVKVPATSASTWTYWVIQQAVGAPPIAHPIHLHGHDSYILGAGDGQFNAATHFSQLRFTNPPRRDVSQLKGNGWLVIAYPTDNPGAWLMHCHIAFHVGMGLSVQFLERKQQIVLPATGSEWYNNCNNWAAYKAGNTDVWPQDDSGLKKRWPPLIEDGSVL
notes: full-length mature laccase (592 residues; precursor 613 with 21-residue signal peptide replaced by A. niger glucoamylase 24-residue prepropeptide, correctly cleaved off); codon-optimised synthetic gene; secreted from Aspergillus niger D15#26; no tag; N-glycosylated, about 75 kDa by SDS-PAGE
Q: What does the source list for B1?
A: Km [1]: 20.6 ± 3.9 µM; kcat [1]: 0.153 ± 0.0026 s⁻¹; kcat/Km [1]: 7420 M⁻¹ s⁻¹; Km [2]: 3.5 ± 0.57 µM; kcat [2]: 0.0074 ± 0.0002 s⁻¹; kcat/Km [2]: 2110 M⁻¹ s⁻¹; Km [3]: 24 ± 3.9 µM; kcat [3]: 0.0059 ± 0.0003 s⁻¹; kcat/Km [3]: 240 M⁻¹ s⁻¹
